Source: PMC5947528

Target: E. coli 3'-phosphoadenosine 5'-phosphosulfate (PAPS) reductase (E. coli) (UniProt P17854)
UniProt P17854, sequence (P17854 whole entry): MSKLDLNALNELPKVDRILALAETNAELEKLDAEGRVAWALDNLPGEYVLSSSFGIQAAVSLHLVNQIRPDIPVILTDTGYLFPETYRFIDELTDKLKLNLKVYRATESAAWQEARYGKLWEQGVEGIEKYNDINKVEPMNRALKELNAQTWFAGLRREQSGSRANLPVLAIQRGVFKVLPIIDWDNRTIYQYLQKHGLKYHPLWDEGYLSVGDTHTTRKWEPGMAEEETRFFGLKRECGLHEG

| Km of PR for the redoxin as electron donor (PAPS reductase assay) | kcat Km^-1 of PR with the redoxin, percent of that with E. coli Trx1 | Vmax of PR with the redoxin as electron donor (PAPS reductase assay) | Binder |
| --- | --- | --- | --- |
| 26.1 µM | – | – | Arabidopsis thaliana TrxH4 (enzyme) MAAEEGQVIGCHTNDVWTVQLDKAKESNKLIVIDFTASWCPPCRMIAPIFNDLAKKFMSSAIFFKVDVDELQSVAKEFGVEAMPTFVFIKAGEVVDKLVGANKEDLQAKIVKHTGVTTA |
| 43.1 µM | 23% | – | Arabidopsis thaliana TrxH2 (enzyme) MGGALSTVFGSGEDATAAGTESEPSRVLKFSSSARWQLHFNEIKESNKLLVVDFSASWCGPCRMIEPAIHAMADKFNDVDFVKLDVDELPDVAKEFNVTAMPTFVLVKRGKEIERIIGAKKDELEKKVSKLRA |
| – | 18% | – | Arabidopsis thaliana TrxH1 (enzyme) MASEEGQVIACHTVETWNEQLQKANESKTLVVVDFTASWCGPCRFIAPFFADLAKKLPNVLFLKVDTDELKSVASDWAIQAMPTFMFLKEGKILDKVVGAKKDELQSTIAKHLA |
| 17.8 µM | 154% | 13.2 U mg^-1 | Arabidopsis thaliana TrxH3 (enzyme) MAAEGEVIACHTVEDWTEKLKAANESKKLIVIDFTATWCPPCRFIAPVFADLAKKHLDVVFFKVDVDELNTVAEEFKVQAMPTFIFMKEGEIKETVVGAAKEEIIANLEKHKTVVAAA |
| – | 59% | – | human Trx1 (enzyme) MVKQIESKTAFQEALDAAGDKLVVVDFSATWCGPCKMIKPFFHSLSEKYSNVIFLEVDVDDCQDVASECEVKCMPTFQFFKKGQKVGEFSGANKEKLEATINELV |
